Assay results published in US10064928B2, “Peptides and combination of peptides for use in immunotherapy against CLL and other cancers” (IMMATICS BIOTECHNOLOGIES GMBH, priority 2015, dated 2018).

Biological target: HLA-A*02:01 (Homo sapiens, UniProt P04439, D140Y/D185E/D98H/E176V/E277Q/G131W/G231S/I119V/I121R/I166T/I218V/L300P/L318F/N151K/N90K/P208A/P217A/Q86G/Q94H/R138H/R169H/T345S)
Experiment: MHC binding assay (UV-ligand exchange, beta2m ELISA)
Settings: binding of HLA-class I restricted peptides to HLA-A*02:01, β2m ELISA
Summary of the method: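 UV-exchange pMHC monomers, 100-fold diluted → streptavidin capture 1 h 37 °C → HRP anti-β2m 2 ug/ml 1 h 37 °C → TMB, A450. Yield from HLA-A*02:01/MLA-001 monomer standard curve, 15-500 ng/ml. Only stably bound peptides keep β2m-containing complexes intact.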

Substance | Peptide Exchange (MHC class I binding score, peptide exchange yield)
176 (VLAEQNIIPSA; listed as Homo sapiens) [compound 176] | “+++” (≥50 = +++)
177 (VLDDRELLL; listed as Homo sapiens) [compound 177] | “+++” (≥50 = +++)
178 (VLFFNVQEV; listed as Homo sapiens) [compound 178] | “+++” (≥50 = +++)
179 (VLLGLEMTL; listed as Homo sapiens) [compound 179] | “+++” (≥50 = +++)
180 (LLKDGPEIGL; listed as Homo sapiens) [compound 180] | “++” (≥20% = ++)
181 (VLLSIPFVSV; listed as Homo sapiens) [compound 181] | “+++” (≥50 = +++)
182 (VLLSVPGPPV; listed as Homo sapiens) [compound 182] | “+++” (≥50 = +++)
183 (VLMPTVYQQGV; listed as Homo sapiens) [compound 183] | “+++” (≥50 = +++)
184 (VLSHNLYTV; listed as Homo sapiens) [compound 184] | “+++” (≥50 = +++)
185 (VMDDQRDLI; listed as Homo sapiens) [compound 185] | “++” (≥20% = ++)
186 (VMDPTKILI; listed as Homo sapiens) [compound 186] | “++++” (≥75% = ++++)
187 (VMDTHLVNI; listed as Homo sapiens) [compound 187] | “++++” (≥75% = ++++)
188 (VMGDIPAAV; listed as Homo sapiens) [compound 188] | “++” (≥20% = ++)
189 (VMLEMTPEL; listed as Homo sapiens) [compound 189] | “+++” (≥50 = +++)
190 (VVMGTVPRL; listed as Homo sapiens) [compound 190] | “+++” (≥50 = +++)
191 (YIFDGSDGGV; listed as Homo sapiens) [compound 191] | “+++” (≥50 = +++)
193 (YLDLSNNRL; listed as Homo sapiens) [compound 193] | “+++” (≥50 = +++)
194 (YLDNVLAEL; listed as Homo sapiens) [compound 194] | “++++” (≥75% = ++++)
195 (YLGGFALSV; listed as Homo sapiens) [compound 195] | “++++” (≥75% = ++++)
196 (YLLLQTYVL; listed as Homo sapiens) [compound 196] | “+” (≥10% = +)
198 (YLTFLPAEV; listed as Homo sapiens) [compound 198] | “+++” (≥50 = +++)
199 (YLVELSSLL; listed as Homo sapiens) [compound 199] | “++++” (≥75% = ++++)

Substance | Peptide Exchange (MHC class I binding score, peptide exchange yield)
203 (ALLSSQLAL; listed as Homo sapiens) [compound 203] | “+++” (≥50 = +++)
204 (GLLQINDKIAL; listed as Homo sapiens) [compound 204] | “+++” (≥50 = +++)
205 (GLSQANFTL; listed as Homo sapiens) [compound 205] | “+++” (≥50 = +++)
206 (HMQDVRVLL; listed as Homo sapiens) [compound 206] | “+++” (≥50 = +++)
207 (IIADLDTTIMFA; listed as Homo sapiens) [compound 207] | “+++” (≥50 = +++)
208 (ILLKTEGINL; listed as Homo sapiens) [compound 208] | “+++” (≥50 = +++)
209 (ILQAELPSL; listed as Homo sapiens) [compound 209] | “+++” (≥50 = +++)
210 (KLLVQDFFL; listed as Homo sapiens) [compound 210] | “+++” (≥50 = +++)
211 (LIDVKPLGV; listed as Homo sapiens) [compound 211] | “+++” (≥50 = +++)
214 (RLQELTEKL; listed as Homo sapiens) [compound 214] | “+++” (≥50 = +++)
215 (VMQDIVYKL; listed as Homo sapiens) [compound 215] | “+++” (≥50 = +++)
216 (WLAGDVPAA; listed as Homo sapiens) [compound 216] | “+++” (≥50 = +++)
217 (ALDEPPYLTV; listed as Homo sapiens) [compound 217] | “+++” (≥50 = +++)
218 (ALGEEWKGYVV; listed as Homo sapiens) [compound 218] | “++” (≥20% = ++)
219 (ALLNLLESA; listed as Homo sapiens) [compound 219] | “+++” (≥50 = +++)
221 (ALVSTIIMV; listed as Homo sapiens) [compound 221] | “+” (≥10% = +)
222 (ALWELSLKI; listed as Homo sapiens) [compound 222] | “+++” (≥50 = +++)
223 (ALWVSQPPEI; listed as Homo sapiens) [compound 223] | “+++” (≥50 = +++)
224 (AMEALVVEV; listed as Homo sapiens) [compound 224] | “+++” (≥50 = +++)
225 (ILQERELLPV; listed as Homo sapiens) [compound 225] | “+++” (≥50 = +++)
226 (AMNISVPQV; listed as Homo sapiens) [compound 226] | “+++” (≥50 = +++)
227 (FLAEASVMTQL; listed as Homo sapiens) [compound 227] | “+++” (≥50 = +++)

Substance | Peptide Exchange (MHC class I binding score, peptide exchange yield)
228 (FLGGLSPGV; listed as Homo sapiens) [compound 228] | “+++” (≥50 = +++)
229 (FLLNLQNCHL; listed as Homo sapiens) [compound 229] | “++++” (≥75% = ++++)
230 (FLQDSKVIFV; listed as Homo sapiens) [compound 230] | “+++” (≥50 = +++)
231 (FLYIRQLAI; listed as Homo sapiens) [compound 231] | “+++” (≥50 = +++)
232 (FMHQIIDQV; listed as Homo sapiens) [compound 232] | “++++” (≥75% = ++++)
233 (GIIDINVRL; listed as Homo sapiens) [compound 233] | “++” (≥20% = ++)
234 (GLDDAEYAL; listed as Homo sapiens) [compound 234] | “++” (≥20% = ++)
235 (GLDDLLLFL; listed as Homo sapiens) [compound 235] | “+++” (≥50 = +++)
236 (GLLESGRHYL; listed as Homo sapiens) [compound 236] | “+++” (≥50 = +++)
237 (GLQENLDVVV; listed as Homo sapiens) [compound 237] | “++++” (≥75% = ++++)
238 (GLVETELQL; listed as Homo sapiens) [compound 238] | “+++” (≥50 = +++)
239 (ILAGEMLSV; listed as Homo sapiens) [compound 239] | “+++” (≥50 = +++)
241 (ILGDILLKV; listed as Homo sapiens) [compound 241] | “+++” (≥50 = +++)
242 (ILLGIQELL; listed as Homo sapiens) [compound 242] | “+++” (≥50 = +++)
243 (ILPTLEKELFL; listed as Homo sapiens) [compound 243] | “+++” (≥50 = +++)
244 (ILQALAVHL; listed as Homo sapiens) [compound 244] | “+++” (≥50 = +++)
245 (KIMDYSLLLGV; listed as Homo sapiens) [compound 245] | “++++” (≥75% = ++++)
246 (KLDETGVAL; listed as Homo sapiens) [compound 246] | “++” (≥20% = ++)
247 (KLKDRLPSI; listed as Homo sapiens) [compound 247] | “++” (≥20% = ++)
248 (KTVEPPISQV; listed as Homo sapiens) [compound 248] | “++” (≥20% = ++)
249 (LLPTGVFQV; listed as Homo sapiens) [compound 249] | “+++” (≥50 = +++)
250 (LLVQEPDGLMV; listed as Homo sapiens) [compound 250] | “+++” (≥50 = +++)
